The source of these data is publication PMC9376891 (Nature Communications, 2022).

First the molecules themselves.
B1: SARS-CoV-2 ORF6 C3 lacking the last three residues 59-EID-61 but retaining M58 (peptide)
peptide: YSQLDEEQPM
notes: source: synthetic peptide
B2: SARS-CoV-2- ORF6-EID (peptide)
peptide: YSQLDEEQPM
notes: source: synthetic peptide
B3: SARS-CoV ORF6-YP (peptide)
peptide: YSELDDEEPMELD
B4: Rae1(31-368)-Nup98(157-213) heterodimer (complex)
chain 1: DIEVTSSPDDSIGCLSFSPPTLPGNFLIAGSWANDVRCWEVQDSGQTIPKAQQMHTGPVLDVCWSDDGSKVFTASCDKTAKMWDLSSNQAIQIAQHDAPVKTIHWIKAPNYSCVMTGSWDKTLKFWDTRSSNPMMVLQLPERCYCADVIYPMAVVATAERGLIVYQLENQPSEFRRIESPLKHQHRCVAIFKDKQNKPTGFALGSIEGRVAIHYINPPNPAKDNFTFKCHRSNGTNTSAPQDIYAVNGIAFHPVHGTLATVGSDGRFSFWDKDARTKLKTSEQLDQPISACCFNHNGNIFAYASSYDWSKGHEFYNPQKKNYIFLRNAAEELKPRNKK
chain 2: not shown
notes: also called Rae1-Nup98; Rae1-Nup98 complex
B5: SARS-CoV ORF6 C3 peptide (peptide)
peptide: YSELDDEEPMELDYP
B6: SARS-CoV-2 ORF6 C3 peptide (peptide)
peptide: YSQLDEEQPMEID
notes: source: synthetic peptide
B7: SARS-CoV-2 ORF6 C1 (peptide)
peptide: SLTENKYSQLDEEQPMEID
notes: source: synthetic peptide
B8: MHV-68 ORF10 CTT peptide (peptide)
chain: RAITDGGESPMEWQTL
B9: VSV-M-NTE (peptide)
peptide: DEMDTHDPNQLRY
B10: SARS-CoV-2 ORF6 C3 (peptide)
peptide: YSQLDEEQPMEID
notes: source: synthetic peptide
B11: SARS-CoV-2 ORF6 C4 (peptide)
peptide: DEEQPMEID
notes: source: synthetic peptide
B12: SARS-CoV ORF6 C3 (peptide)
peptide: YSELDDEEPMELDYP
B13: SARS-CoV ORF6 C3 -YP (peptide)
peptide: YSELDDEEPMELD
B14: SARS-CoV-2 ORF6 C2 (peptide)
peptide: ENKYSQLDEEQPMEID
notes: source: synthetic peptide

What all share (assay): ITC
Details in all cases: both partners purified

Test [1] concerns the target T1, Rae1(31-368)-Nup98(157-213) heterodimer (human, UniProt P78406 31-368; P52948 157-213).
T1 construct: also called Rae1-Nup98; Rae1-Nup98 complex
T1 sequence (P52948 157-213, chain 2 of 2, one chain of several): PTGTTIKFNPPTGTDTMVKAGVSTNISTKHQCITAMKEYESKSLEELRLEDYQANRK

Test [2] has as its target B4. This is another data set of the same source.
Target sequence in this assay (P52948 157-213, chain 2 of 2, one chain of several): as above
The target in test [3] is T2, MHV68-ORF10-CTT (murine gammaherpesvirus 68).
T2 construct: source: synthetic peptide
T2 sequence (P52948 157-213): as the sequence (P52948 157-213, chain 2 of 2, one chain of several) above

Test [4] addresses B4. The source holds these as a separate data set.
Target sequence in this assay (P52948 157-213, chain 2 of 2, one chain of several): as above

The molecule B1 displayed a Kd in test [1] of 87700 nM.

For B2, in test [2], the Ka was 11400 M⁻¹ and the “stoichiometry N” value stood at 1.01.

As to B3, in test [2], the Ka was found to be 8.89e+06 M⁻¹ and the “stoichiometry N” value was 0.62.

B4 had a Ka in test [3] of 175000 M⁻¹.

Consider B5, for which the Kd in test [1] came out at 370 nM.

As to B6, the equilibrium dissociation constant (Kd) in test [1] was determined as 240 nM.

Regarding B7, in test [4], the Ka was 2.62e+06 M⁻¹, binding was characterised by a dissociation constant (Kd) of 380 nM and the “stoichiometry N” value was 1.06.

In test [1], B8 gave a Kd of 5710 nM.

For B9, in test [2], the Ka amounted to 8550 M⁻¹ and the “stoichiometry N” value is 0.304.

As for B10, in test [4], the Ka was determined as 4.12e+06 M⁻¹ and the “stoichiometry N” value was determined as 0.9.

Regarding B11, in test [4], the Ka is 2.25e+06 M⁻¹; the affinity, expressed as Kd, was 440 nM; the “stoichiometry N” value amounted to 0.82.

B12: in test [2], the Ka is 2.69e+06 M⁻¹ and the “stoichiometry N” value stood at 0.63.

In test [1], B13 displayed a Kd of 110 nM.

Turning to B14, in test [4], the Ka was determined as 3.58e+06 M⁻¹, the Kd stood at 270 nM and the “stoichiometry N” value was determined as 1.17.
